# Results published in US20030232412.
# T1: His-tagged PprB
# T1 chain: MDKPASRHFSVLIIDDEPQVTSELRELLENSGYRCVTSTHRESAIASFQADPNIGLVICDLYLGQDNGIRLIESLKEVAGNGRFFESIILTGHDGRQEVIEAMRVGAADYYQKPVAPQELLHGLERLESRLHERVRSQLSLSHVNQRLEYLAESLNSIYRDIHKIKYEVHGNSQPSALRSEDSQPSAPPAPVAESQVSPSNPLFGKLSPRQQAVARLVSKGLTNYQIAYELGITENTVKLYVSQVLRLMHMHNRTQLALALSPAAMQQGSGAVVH
# B1: His-tagged PprA (protein)
# chain: MFEFSRSSSAEAERPEPFSQEGPALWSASLRSWDLCFEMDEQDRVIRVGGRQAYRLQCAHGLGEQPRPFAEYLERRAPGAPTLAGLRRGERLDLTLRSDAAAPLTCRFQPMQPLDGLGRSLLLGMDISDLNWQSDSQQHQLQSLSLGKLILSRLRHVSHGHLAEAVQEILESLSGAFQMQAIALLLGDGKGFCTVFASHVRPGSDSLLRPPLQLADDDLREGAGARLLRRGEGASTLLRQIGEDALYLVPATMRGGRLGALLVRPMSLEQLAQGPAPQDWQYLAELLANQVADRCELHEQHDSSRKLGLLQEMIGGGWWRYWAEQELFELAPALHDSLGLTGEYRRVPLEHLQGLLQPADADELGLRLRASLRSGQALAQDLCLRQPDSRGERRWLRIEGRPLGRGSALGLSGVLLDISEGRRQEERAQAAHARLRSLIDSAPVVIYVQRVEQGHLVPEFYSESASNLLGLDLQGQSWQALAERVHPDDLEAFFARGRELLREGRVKTRYRLADGQGNWHWLYDEAKLLRDAQGLPSEAVGLWLDVTEQHLAAQRIAESEERYRVLVEDSPALICRYTADLVLTYVNRTFADSLATSPERLVGRRLDEWLAAEDASALRARLLGSPREGASEVPELRFNLPGQRFLWLVWAERPLFDARGELCEVQAVGRDNTPVRRAQQQLAQGAKMASLGEMVSGLAHEVKQPLHVLRMTLFNMRQRMNSVGLDGDYLGEKLERMDAQVLRVDRLVSHLGVFSRKSALEALPFDPYAAFEGALGLLGEGLRQHAIEVECPAPTQRMVVRGQADQLEQVIINLLANARDALLGNPGLASRRVRLEQVACREPGWVELHVHDNGGGIEPLLLERIFEPFFTTKAEGKGTGLGLSVSHDLVRNMGGSLTAANQGEGALFVVRLPLAAPAEAGG
# Biological target: T1, His-tagged PprB
protein,measurement,value
B1,"in vitro phosphorylation assay ([gamma-32P]ATP, SDS-PAGE, autoradiography)","PprA was phosphorylated; PprB was not. Notably, however, when PprA was mixed with PprB, PprB became highly phosphorylated."
